# How the values were obtained:
# [1] = molecular target: T1, vaccinia-expressed E1E2 complex, isolate HCV-1 (genotype 1a) (hepatitis C virus, isolate HCV-1, UniProt P26664 192-383; P26664 384-746); test: competition ELISA on HCV-1 E1E2; competitor m3 (AR2A)
# [2] = molecular target: E1E2 complex of HCV isolate H77 (genotype 1a), wild type (HCV isolate H77, UniProt P27958 192-383; P27958 384-746); test: competition ELISA on H77 E1E2; competitor m38 (Fab N2)
# [3] = molecular target: T1, vaccinia-expressed E1E2 complex, …; test: competition ELISA on HCV-1 E1E2; competitor m30 (7/16B)
# [4] = molecular target: T1, vaccinia-expressed E1E2 complex, …; test: competition ELISA on HCV-1 E1E2; competitor m21 (CBH-5)
# [5] = molecular target: T1, vaccinia-expressed E1E2 complex, …; test: competition ELISA on HCV-1 E1E2; competitor m6 (AR3C)
# [6] = molecular target: T1, vaccinia-expressed E1E2 complex, …; test: competition ELISA on HCV-1 E1E2; competitor m34 (6/53)
# [7] = molecular target: T1, vaccinia-expressed E1E2 complex, …; test: competition ELISA on HCV-1 E1E2; competitor m22 (CBH-7)
binder,measurement,setting,value
"MAb AR3C (antibody, V domains shown, also called IgG1 of Fab H3) VH: LEQSGAEVKKPGSSVKVSCETSGGTLDNYALNWVRQAPGQGLEWIGGVVPLFGTTRNAQKFQGRVTISDDKSTGTGHMELRSLRSEDTAVYYCVRSVTPRYCGGGFCYGEFDYWGQGTLVTVSS VL: ELTQSPATLSVSPGERATLSCRASQSVSSNLAWYQQKPGQAPRLLIYGASTRATGIPARFSGSGSGTEFTLTVSRLEPEDSAVYFCQQYYRSPLTFGGGTKVEIKR",% residual binding,[1],83%
same,% residual binding,[2],116%
same,% residual binding,[3],99%
same,% residual binding,[4],19%
same,% residual binding,[5],8%
same,% residual binding,[6],105%
same,% residual binding,[7],39%

# — US20110311550A1 (Scripps Research, published 2011)
